In patent US20210221899A1 (published 2021):

T1: human NGF (human, UniProt P01138 122-241)
T1 construct: also called human Nerve Growth Factor; hN
T1 chain: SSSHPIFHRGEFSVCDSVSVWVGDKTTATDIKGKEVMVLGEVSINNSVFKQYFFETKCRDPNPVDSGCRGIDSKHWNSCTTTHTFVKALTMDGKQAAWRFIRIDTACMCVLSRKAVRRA

T2: canine NGF (canine, UniProt Q29074 110-229 (pig entry), limits assumed)
T2 construct: The protein was secreted from CHO cells and purified; also called cNGF; canine β-NGF
T2 chain: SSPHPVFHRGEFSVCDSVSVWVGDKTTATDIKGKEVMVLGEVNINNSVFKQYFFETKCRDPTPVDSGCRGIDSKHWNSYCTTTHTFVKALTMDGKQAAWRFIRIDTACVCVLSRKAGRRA


Columns and labels:
Assay in all cases: SPR (Biacore T200), 100 nM mAb on NGF chip, similarity to parent mAb
human NGF = target: T1, human NGF
In short: (§1)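 CDR alanine-scan mutants of the anti-NGF mAb were each run at 100 nM over an NGF-coated Biacore T200 chip. A threshold band was set from the mean response units of four parent-mAb replicates ±3 SD, covering both on- and off-rate phases. The score is the percentage of each mutant's data points falling inside that band.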

rat NGF = target: T3, rat NGF (rat, UniProt P25427 122-241)
T3 construct: also called rN
In short: as §1

canine NGF = target: T2, canine NGF
In short: as §1

T3 sequence (P25427 122-241 limits assumed): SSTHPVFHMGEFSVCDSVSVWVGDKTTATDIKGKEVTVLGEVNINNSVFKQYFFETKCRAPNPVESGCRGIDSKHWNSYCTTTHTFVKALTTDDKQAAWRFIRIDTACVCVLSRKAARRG

Binder | Percent Similarity Score (KD on hN) (human NGF) | Percent Similarity Score (KD on rN) (rat NGF) | Percent Similarity Score (KD on cN) (canine NGF)
can48L2VL_D30A (antibody, V domains shown, CDR scanning mutant of ZTS-842 (48L2)) VH: EVQLVESGGDLVKPGGSLRLSCVASGFTFSTYGINWVRQAPGKGLQWVAYISSGGSSTYYADPVKGRFTISRDDAKNMLYLQMNSLRAEDTAIYYCAGSRYTYAYGGGYEFHFWGQGTLVTVSS VL: QAVLNQPASVSGALGQKVTISCSGSTMDIAIFGVSWYQQLPGKAPKLLVDSDGDRPSGIPDRFSGSRSGNSGTLTITGLQAEDEADYHCQSGDSTLGALAIFGGGTHVTVL | 99.7% | 98.7% | 98.3%
can48L2VL_I29A (antibody, V domains shown, CDR scanning mutant of ZTS-842 (48L2)) VH: EVQLVESGGDLVKPGGSLRLSCVASGFTFSTYGINWVRQAPGKGLQWVAYISSGGSSTYYADPVKGRFTISRDDAKNMLYLQMNSLRAEDTAIYYCAGSRYTYAYGGGYEFHFWGQGTLVTVSS VL: QAVLNQPASVSGALGQKVTISCSGSTMDADIFGVSWYQQLPGKAPKLLVDSDGDRPSGIPDRFSGSRSGNSGTLTITGLQAEDEADYHCQSGDSTLGALAIFGGGTHVTVL | 97.8% | 57.2% | 47%
can48L2VL_F32A (antibody, V domains shown, CDR scanning mutant of ZTS-842 (48L2)) VH: EVQLVESGGDLVKPGGSLRLSCVASGFTFSTYGINWVRQAPGKGLQWVAYISSGGSSTYYADPVKGRFTISRDDAKNMLYLQMNSLRAEDTAIYYCAGSRYTYAYGGGYEFHFWGQGTLVTVSS VL: QAVLNQPASVSGALGQKVTISCSGSTMDIDIAGVSWYQQLPGKAPKLLVDSDGDRPSGIPDRFSGSRSGNSGTLTITGLQAEDEADYHCQSGDSTLGALAIFGGGTHVTVL | 44.3% | 66% | 19.6%
can48L2VL_G97A (antibody, V domains shown, CDR scanning mutant of ZTS-842 (48L2)) VH: EVQLVESGGDLVKPGGSLRLSCVASGFTFSTYGINWVRQAPGKGLQWVAYISSGGSSTYYADPVKGRFTISRDDAKNMLYLQMNSLRAEDTAIYYCAGSRYTYAYGGGYEFHFWGQGTLVTVSS VL: QAVLNQPASVSGALGQKVTISCSGSTMDIDIFGVSWYQQLPGKAPKLLVDSDGDRPSGIPDRFSGSRSGNSGTLTITGLQAEDEADYHCQSGDSTLAALAIFGGGTHVTVL | 100% | 99.6% | 92.4%
can48L2VL_G92A (antibody, V domains shown, CDR scanning mutant of ZTS-842 (48L2)) VH: EVQLVESGGDLVKPGGSLRLSCVASGFTFSTYGINWVRQAPGKGLQWVAYISSGGSSTYYADPVKGRFTISRDDAKNMLYLQMNSLRAEDTAIYYCAGSRYTYAYGGGYEFHFWGQGTLVTVSS VL: QAVLNQPASVSGALGQKVTISCSGSTMDIDIFGVSWYQQLPGKAPKLLVDSDGDRPSGIPDRFSGSRSGNSGTLTITGLQAEDEADYHCQSADSTLGALAIFGGGTHVTVL | 99.3% | 97% | 93.6%
can48L2VL_D93A (antibody, V domains shown, CDR scanning mutant of ZTS-842 (48L2)) VH: EVQLVESGGDLVKPGGSLRLSCVASGFTFSTYGINWVRQAPGKGLQWVAYISSGGSSTYYADPVKGRFTISRDDAKNMLYLQMNSLRAEDTAIYYCAGSRYTYAYGGGYEFHFWGQGTLVTVSS VL: QAVLNQPASVSGALGQKVTISCSGSTMDIDIFGVSWYQQLPGKAPKLLVDSDGDRPSGIPDRFSGSRSGNSGTLTITGLQAEDEADYHCQSGASTLGALAIFGGGTHVTVL | 99.9% | 99.5% | 98.7%
can48L2VL_I101A (antibody, V domains shown, CDR scanning mutant of ZTS-842 (48L2)) VH: EVQLVESGGDLVKPGGSLRLSCVASGFTFSTYGINWVRQAPGKGLQWVAYISSGGSSTYYADPVKGRFTISRDDAKNMLYLQMNSLRAEDTAIYYCAGSRYTYAYGGGYEFHFWGQGTLVTVSS VL: QAVLNQPASVSGALGQKVTISCSGSTMDIDIFGVSWYQQLPGKAPKLLVDSDGDRPSGIPDRFSGSRSGNSGTLTITGLQAEDEADYHCQSGDSTLGALAAFGGGTHVTVL | 100% | 99.6% | 97.3%
can48L2VL_M27A (antibody, V domains shown, CDR scanning mutant of ZTS-842 (48L2)) VH: EVQLVESGGDLVKPGGSLRLSCVASGFTFSTYGINWVRQAPGKGLQWVAYISSGGSSTYYADPVKGRFTISRDDAKNMLYLQMNSLRAEDTAIYYCAGSRYTYAYGGGYEFHFWGQGTLVTVSS VL: QAVLNQPASVSGALGQKVTISCSGSTADIDIFGVSWYQQLPGKAPKLLVDSDGDRPSGIPDRFSGSRSGNSGTLTITGLQAEDEADYHCQSGDSTLGALAIFGGGTHVTVL | 72.1% | 37.9% | 28%
can48L2VL_L96A (antibody, V domains shown, CDR scanning mutant of ZTS-842 (48L2)) VH: EVQLVESGGDLVKPGGSLRLSCVASGFTFSTYGINWVRQAPGKGLQWVAYISSGGSSTYYADPVKGRFTISRDDAKNMLYLQMNSLRAEDTAIYYCAGSRYTYAYGGGYEFHFWGQGTLVTVSS VL: QAVLNQPASVSGALGQKVTISCSGSTMDIDIFGVSWYQQLPGKAPKLLVDSDGDRPSGIPDRFSGSRSGNSGTLTITGLQAEDEADYHCQSGDSTAGALAIFGGGTHVTVL | 99.9% | 93.2% | 90%
can48L2VL_G53A (antibody, V domains shown, CDR scanning mutant of ZTS-842 (48L2)) VH: EVQLVESGGDLVKPGGSLRLSCVASGFTFSTYGINWVRQAPGKGLQWVAYISSGGSSTYYADPVKGRFTISRDDAKNMLYLQMNSLRAEDTAIYYCAGSRYTYAYGGGYEFHFWGQGTLVTVSS VL: QAVLNQPASVSGALGQKVTISCSGSTMDIDIFGVSWYQQLPGKAPKLLVDSDADRPSGIPDRFSGSRSGNSGTLTITGLQAEDEADYHCQSGDSTLGALAIFGGGTHVTVL | 100% | 100% | 100%
can48L2VL_G33A (antibody, V domains shown, CDR scanning mutant of ZTS-842 (48L2)) VH: EVQLVESGGDLVKPGGSLRLSCVASGFTFSTYGINWVRQAPGKGLQWVAYISSGGSSTYYADPVKGRFTISRDDAKNMLYLQMNSLRAEDTAIYYCAGSRYTYAYGGGYEFHFWGQGTLVTVSS VL: QAVLNQPASVSGALGQKVTISCSGSTMDIDIFAVSWYQQLPGKAPKLLVDSDGDRPSGIPDRFSGSRSGNSGTLTITGLQAEDEADYHCQSGDSTLGALAIFGGGTHVTVL | 56.6% | 21.2% | 17.5%
can48L2VL_D52A (antibody, V domains shown, CDR scanning mutant of ZTS-842 (48L2)) VH: EVQLVESGGDLVKPGGSLRLSCVASGFTFSTYGINWVRQAPGKGLQWVAYISSGGSSTYYADPVKGRFTISRDDAKNMLYLQMNSLRAEDTAIYYCAGSRYTYAYGGGYEFHFWGQGTLVTVSS VL: QAVLNQPASVSGALGQKVTISCSGSTMDIDIFGVSWYQQLPGKAPKLLVDSAGDRPSGIPDRFSGSRSGNSGTLTITGLQAEDEADYHCQSGDSTLGALAIFGGGTHVTVL | 100% | 99.9% | 99.7%
can48L2VL_S51A (antibody, V domains shown, CDR scanning mutant of ZTS-842 (48L2)) VH: EVQLVESGGDLVKPGGSLRLSCVASGFTFSTYGINWVRQAPGKGLQWVAYISSGGSSTYYADPVKGRFTISRDDAKNMLYLQMNSLRAEDTAIYYCAGSRYTYAYGGGYEFHFWGQGTLVTVSS VL: QAVLNQPASVSGALGQKVTISCSGSTMDIDIFGVSWYQQLPGKAPKLLVDADGDRPSGIPDRFSGSRSGNSGTLTITGLQAEDEADYHCQSGDSTLGALAIFGGGTHVTVL | 100% | 100% | 100%
can48L2VL_Q90A (antibody, V domains shown, CDR scanning mutant of ZTS-842 (48L2)) VH: EVQLVESGGDLVKPGGSLRLSCVASGFTFSTYGINWVRQAPGKGLQWVAYISSGGSSTYYADPVKGRFTISRDDAKNMLYLQMNSLRAEDTAIYYCAGSRYTYAYGGGYEFHFWGQGTLVTVSS VL: QAVLNQPASVSGALGQKVTISCSGSTMDIDIFGVSWYQQLPGKAPKLLVDSDGDRPSGIPDRFSGSRSGNSGTLTITGLQAEDEADYHCASGDSTLGALAIFGGGTHVTVL | 99.9% | 98.7% | 94.4%
can48L2VL_I31A (antibody, V domains shown, CDR scanning mutant of ZTS-842 (48L2)) VH: EVQLVESGGDLVKPGGSLRLSCVASGFTFSTYGINWVRQAPGKGLQWVAYISSGGSSTYYADPVKGRFTISRDDAKNMLYLQMNSLRAEDTAIYYCAGSRYTYAYGGGYEFHFWGQGTLVTVSS VL: QAVLNQPASVSGALGQKVTISCSGSTMDIDAFGVSWYQQLPGKAPKLLVDSDGDRPSGIPDRFSGSRSGNSGTLTITGLQAEDEADYHCQSGDSTLGALAIFGGGTHVTVL | 86.2% | 39.9% | 32.9%
can48L2VL_L99A (antibody, V domains shown, CDR scanning mutant of ZTS-842 (48L2)) VH: EVQLVESGGDLVKPGGSLRLSCVASGFTFSTYGINWVRQAPGKGLQWVAYISSGGSSTYYADPVKGRFTISRDDAKNMLYLQMNSLRAEDTAIYYCAGSRYTYAYGGGYEFHFWGQGTLVTVSS VL: QAVLNQPASVSGALGQKVTISCSGSTMDIDIFGVSWYQQLPGKAPKLLVDSDGDRPSGIPDRFSGSRSGNSGTLTITGLQAEDEADYHCQSGDSTLGAAAIFGGGTHVTVL | 99.8% | 98.4% | 96.8%
